Experiments:
[1] = target: T1, gp130 bound OSM-WT (gp130:OSM-WT) (human, UniProt P40189 23-619); test: ELISA, apparent KD (KD,App), gp130 coated, saturating cytokine, soluble OSMR titrated (with gp130)
T1 construct: extracellular domain; Non-covalent complex formed on the plate: gp130 coated, then 200 nM OSM-WT; also called OSM-WT with gp130; not shown: N-terminal FLAG tag
T1 sequence 1: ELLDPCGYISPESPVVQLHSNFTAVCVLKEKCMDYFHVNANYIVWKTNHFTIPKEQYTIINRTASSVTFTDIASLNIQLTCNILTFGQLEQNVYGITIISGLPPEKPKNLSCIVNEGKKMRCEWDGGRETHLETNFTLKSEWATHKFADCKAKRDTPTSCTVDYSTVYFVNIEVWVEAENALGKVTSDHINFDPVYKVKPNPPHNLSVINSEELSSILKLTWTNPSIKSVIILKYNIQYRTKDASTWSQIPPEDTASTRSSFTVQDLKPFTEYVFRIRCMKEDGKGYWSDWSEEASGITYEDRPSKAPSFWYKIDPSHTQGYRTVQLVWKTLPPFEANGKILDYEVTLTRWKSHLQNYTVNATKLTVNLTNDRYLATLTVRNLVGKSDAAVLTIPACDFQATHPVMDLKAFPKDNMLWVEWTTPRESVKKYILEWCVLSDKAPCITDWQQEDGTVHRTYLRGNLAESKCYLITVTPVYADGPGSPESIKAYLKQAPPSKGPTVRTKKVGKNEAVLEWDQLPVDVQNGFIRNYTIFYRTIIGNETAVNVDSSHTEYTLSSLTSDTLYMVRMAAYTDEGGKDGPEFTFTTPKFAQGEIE
T1 sequence 2: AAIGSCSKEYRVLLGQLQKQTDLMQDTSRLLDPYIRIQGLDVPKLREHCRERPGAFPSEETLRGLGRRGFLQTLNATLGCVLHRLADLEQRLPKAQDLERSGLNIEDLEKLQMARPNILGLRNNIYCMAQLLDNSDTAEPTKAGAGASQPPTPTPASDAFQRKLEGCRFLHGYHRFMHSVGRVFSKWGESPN
Procedure: (§1) FIG. 13 graphically depicts an ELISA analysis of soluble OSMR and soluble LIFR binding with LIF, OSM-WT, OSM-M1 and OSM-M2 or gp130 bound LIF (gp130:LIF), OSM-WT (gp130:OSM-WT), OSM-M1 (gp130:OSM-M1) and OSM-M2 (gp130:OSM-M2). Cytokines (LIF, OSM-WT, OSM-M1 or OSM-M2) immobilized on an ELISA plate in the absence (A,C) or presence (B,D) of gp130 were treated with various concentrations of soluble OSMR (A,B) or soluble LIFR (C,D). Equilibrium KD values were estimated using a non-linear curve fitting to the binding data using GraphPad Prism (Graph Pad Software. LaJolla, Calif.). In addition, see Table 3.
(§2) Enzyme-linked immunosorbent assay (ELISA): ELISA was used to evaluate the equilibrium binding strength of the interaction between the cytokines and their receptors. This technique has traditionally been used as a sensitive method to quantify the binding affinities between two interacting proteins. However, unlike in SPR, ELISA involves immobilization of the proteins on a flat plastic surface driven by hydrophobic and ionic interactions. This might cause some distortion in the 3 dimensional structure of immobilized protein which leads to inaccuracies in the estimation of dissociation constants. It is thus important to bear in mind that the values estimated using this technique are to be used only for comparison between species but not as true equilibrium binding constants. The results obtained using this technique will thus be presented as apparent equilibrium dissociation constants (K_{D,App}). For direct interaction studies, cytokines (LIF, OSM-WT, OSM-M1 or OSM-M2) were immobilized on the 96 well ELISA plate by incubating the wells with 200 μl of 5 nM cytokine solution in PBS, pH 7.4 overnight at 4° C. The wells were then blocked with blocking buffer (4% BSA in PBS) for 1 hour at room temperature. […]

[2] = target: T2, gp130 bound OSM-M1 (gp130:OSM-M1) (human, UniProt P40189 23-619); test: as above
T2 construct: extracellular domain; Non-covalent complex formed on the plate: gp130 coated, then 200 nM OSM-M1; also called OSM-M1 with gp130; not shown: N-terminal FLAG tag
T2 sequence 1: T1 sequence 1
T2 sequence 2: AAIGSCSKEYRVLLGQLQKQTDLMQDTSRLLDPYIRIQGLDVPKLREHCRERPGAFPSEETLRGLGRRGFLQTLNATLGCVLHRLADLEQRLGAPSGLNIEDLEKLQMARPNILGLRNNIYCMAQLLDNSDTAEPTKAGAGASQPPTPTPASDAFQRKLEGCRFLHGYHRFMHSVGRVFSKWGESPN
Procedure: as §1, §2

[3] = target: T3, gp130 bound OSM-M2 (gp130:OSM-M2) (human, UniProt P40189 23-619); test: as above
T3 construct: extracellular domain; Non-covalent complex formed on the plate: gp130 coated, then 200 nM OSM-M2; also called OSM-M2 with gp130; not shown: N-terminal FLAG tag
T3 sequence 1: T1 sequence 1
T3 sequence 2: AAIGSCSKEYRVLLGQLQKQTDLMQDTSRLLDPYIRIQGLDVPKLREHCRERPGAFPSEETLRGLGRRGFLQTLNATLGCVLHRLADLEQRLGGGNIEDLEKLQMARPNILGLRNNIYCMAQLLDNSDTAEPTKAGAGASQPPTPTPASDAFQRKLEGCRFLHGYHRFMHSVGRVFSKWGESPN
Procedure: as §1, §2

[4] = target: T4, gp130 bound LIF (gp130:LIF) (human, UniProt P40189 23-619; P15018 23-202); test: ELISA, gp130 coated and loaded with LIF, soluble OSMR titrated, anti-OSMR detection, O.D at 450 nm
T4 construct: Non-covalent complex formed on the plate: gp130 coated, then saturating cytokine; also called LIF with gp130
T4 sequence (P15018 23-202 limits assumed, one chain of several): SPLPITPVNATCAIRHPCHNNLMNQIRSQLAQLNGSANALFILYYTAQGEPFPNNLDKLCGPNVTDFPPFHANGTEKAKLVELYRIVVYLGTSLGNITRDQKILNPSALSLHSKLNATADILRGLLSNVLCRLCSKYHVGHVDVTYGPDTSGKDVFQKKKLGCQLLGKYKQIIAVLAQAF

Kd [1]: 10.9 nM
Kd [2]: 3.71 nM
Kd [3]: 2.19 nM
binding result [4]: no binding (tested: 75 nM)
B1: soluble human OSMR (Oncostatin M receptor) (receptor, UniProt Q99650 28-740, looked up)
chain: ERLPLTPVSLKVSTNSTRQSLHLQWTVHNLPYHQELKMVFQIQISRIETSNVIWVGNYSTTVKWNQVLHWSWESELPLECATHFVRIKSLVDDAKFPEPNFWSNWSSWEEVSVQDSTGQDILFVFPKDKLVEEGTNVTICYVSRNIQNNVSCYLEGKQIHGEQLDPHVTAFNLNSVPFIRNKGTNIYCEASQGNVSEGMKGIVLFVSKVLEEPKDFSCETEDFKTLHCTWDPGTDTALGWSKQPSQSYTLFESFSGEKKLCTHKNWCNWQITQDSQETYNFTLIAENYLRKRSVNILFNLTHRVYLMNPFSVNFENVNATNAIMTWKVHSIRNNFTYLCQIELHGEGKMMQYNVSIKVNGEYFLSELEPATEYMARVRCADASHFWKWSEWSGQNFTTLEAAPSEAPDVWRIVSLEPGNHTVTLFWKPLSKLHANGKILFYNVVVENLDKPSSSELHSIPAPANSTKLILDRCSYQICVIANNSVGASPASVIVISADPENKEVEEERIAGTEGGFSLSWKPQPGDVIGYVVDWCDHTQDVLGDFQWKNVGPNTTSTVISTDAFRPGVRYDFRIYGLSTKRIACLLEKKTGYSQELAPSDNPHVLVDTLTSHSFTLSWKDYSTESQPGFIQGYHVYLKSKARQCHPRFEKAVLSDGSECCKYKIDNPEEKALIVDNLKPESFYEFFITPFTSAGEGPSATFTKVTTPDEHSSM
notes: extracellular domain; Bought; also called soluble OSMR
